Source: paper PMC3589125 (Structure (London, England : 1993), 2012)
Peptide text beside a SMILES is read from it.

Key:
JNK3α1 [1] = target: T1, JNK3α1 (Homo sapiens, UniProt P53779); experiment: FRET displacement of labeled JIP1 peptide, JNK3α1; format: binding; conditions: FRET IC50 for displacement of labeled JIP1 peptide, Inactive JNK3α1
Active JNK1β1 = Active JNK1β1 (UniProt P45983-3 1-384, phosphorylated in the activation loop by incubation with active MKK4 and MKK7); experiment: FRET or BRET
Inactive JNK1β1 = Inactive JNK1β1 (UniProt P45983-3 1-384); experiment: FRET or BRET
active JNK3α1 (39–422) = active JNK3α1 (39–422) (UniProt P53779)
JNK3α1 [2] = target: T1, JNK3α1; experiment: Km of protein substrates for JNK3α1; format: biochemical; conditions: read-out: Km for JNK3α1; protein substrate
JNK3α1 (39–422) = JNK3α1 (39–422) (UniProt P53779-2 39-422); experiment: ITC
Inactive JNK3α1, P53779 = experiment: FRET or BRET

`CC(C)C[C@H](NC(=O)[C@H](CO)NC(=O)CNC(=O)[C@@H]1CCCN1C(=O)[C@H](CCCNC(=N)N)NC(=O)[C@@H](NC(=O)[C@@H](NC(=O)[C@H](C)N)C(C)C)C(C)C)C(=O)N[C@@H](CC(=O)O)C(=O)N[C@@H](CC(C)C)C(=O)N1CCC[C@H]1C(=O)O` [pepSAB] (H-AVVRPGSLDLP-OH) showed an IC50 (JNK3α1 [1]) of 834 ± 105 µM.

`CC(C)C[C@H](NC(=O)[C@H](CC(N)=O)NC(=O)[C@H](CC(C)C)NC(=O)[C@@H](NC(=O)[C@@H](NC(=O)[C@@H]1CCCN1C(=O)[C@H](CCCN=C(N)N)NC(=O)[C@H](CCCCN)NC(=O)[C@@H]1CCCN1C(=O)[C@@H](N)CCCN=C(N)N)[C@@H](C)O)[C@@H](C)O)C(=O)N[C@@H](Cc1ccccc1)C(=O)O` [pepJIP] (H-RPKRPTTLNLF-OH) showed an IC50 (JNK3α1 [1]) of 1.7 ± 0.4 µM.

B1: pepATF2Hu(46–56) (peptide)
peptide: KHKHEMTLKFG
With B1 the IC50 (Active JNK1β1) was 169 ± 2 µM and the IC50 (Inactive JNK1β1) was 350 ± 12 µM.

B2: His-SAB (1–390) (domain or fragment)
chain: MDAALKRSRSEEPAEILPPARDEEEEEEEGMEQGLEEEEEVDPRIQGELEKLNQSTDDINRRETELEDARQKFRSVLVEATVKLDELVKKIGKAVEDSKPYWEARRVARQAQLEAQKATQDFQRATEVLRAAKETISLAEQRLLEDDKRQFDSAWQEMLNHATQRVMEAEQTKTRSELVHKETAARYNAAMGRMRQLEKKLKRAINKSKPYFELKAKYYVQLEQLKKTVDDLQAKLTLAKGEYKMALKNLEMISDEIHERRRSSAMGPRGCGVGAEGSSTSVEDLPGSKPEPDAISVASEAFEDDSCSNFVSEDDSETQSVSSFSSGPTSPSEMPDQFPAVVRPGSLDLPSPVSLSEFGMMFPVLGPRSECSGASSPECEVERGDRAEGA
For B2, the Km of SAB (1–390) as substrate of JNK3α1 (active JNK3α1 (39–422)) was 0.77 µM.

B3: SAB (1–390): recombinant SAB protein substrate for JNK kinase assays (protein)
chain: B2 chain
modifications: left off: His, end not stated, kept
B3 was tested, and the Km (JNK3α1 [2]) was 770 ± 90 nM.

B4: pepSABhu(40–350) (peptide)
peptide: AVVRPGSLDLP
B4 was tested, and the Kd (JNK3α1 (39–422)) was 17.2 ± 0.6 µM, the dH (JNK3α1 (39–422)) was -4020 cal/mol and the IC50 (Inactive JNK3α1, P53779) was 834 µM. It also gave an IC50 (Active JNK1β1) of 386 ± 10 µM and an IC50 (Inactive JNK1β1) of 612 ± 21 µM.

B5: pepJIPhu(157–167) (peptide)
peptide: RPKRPTTLNLF
Work on B5 yielded a Kd (JNK3α1 (39–422)) of 0.8 ± 0.1 µM, a dH (JNK3α1 (39–422)) of -7650 cal/mol and an IC50 (Inactive JNK3α1, P53779) of 1.7 µM. For the same molecule, the IC50 (Active JNK1β1) was 0.68 ± 0.02 µM and the IC50 (Inactive JNK1β1) was 2.5 ± 0.1 µM.

B6: JIP1 R160H (peptide)
peptide: RPKHPTTLNLF
For B6, the Kd (JNK3α1 (39–422)) was 11.7 ± 1 µM and the dH (JNK3α1 (39–422)) was -6710 cal/mol.

B7: JIP1 T162G (peptide)
peptide: RPKRPGTLNLF
Molecule B7 has a Kd (JNK3α1 (39–422)) of 4.9 ± 0.5 µM and a dH (JNK3α1 (39–422)) of -7110 cal/mol.

B8: JIP1 R160Q (peptide)
peptide: RPKQPTTLNLF
B8 was tested, and the Kd (JNK3α1 (39–422)) was 32.1 ± 3.2 µM and the dH (JNK3α1 (39–422)) was -5460 cal/mol.
